From PMC11253607, “A conserved inhibitory interdomain interaction regulates DNA-binding activities of hybrid two-component systems in Bacteroides” (mBio, 2024)

Tests used:
Assay in all cases: Phos-tag gel autophosphorylation, initial rates, Michaelis-Menten fit
Assay type in all cases: biochemical, Bacteroides thetaiotaomicron
Settings in all cases: phospho-donor, 50 mM Tris pH 7.5, 100 mM NaCl, 5 mM BME, 5 mM MgSO4, 5 µM protein
NP(=O)(O)O [1] = test system: NP(=O)(O)O
Description: Phos-tag gel autophosphorylation, initial rates, Michaelis-Menten fit on BT3334-REC | RECs have higher kcat and lower Km values than RRs

NP(=O)(O)O [2] = test system: NP(=O)(O)O; remark: listed apart in the source
Description: Phos-tag gel autophosphorylation, initial rates, Michaelis-Menten fit on BT3334-RR | RECs have higher kcat and lower Km values than RRs

NP(=O)(O)O [3] = test system: NP(=O)(O)O; remark: listed apart in the source
Description: Phos-tag gel autophosphorylation, initial rates, Michaelis-Menten fit on BT4124-REC | RECs have higher kcat and lower Km values than RRs

NP(=O)(O)O [4] = test system: NP(=O)(O)O; remark: listed apart in the source
NP(=O)(O)O [5] = test system: NP(=O)(O)O; remark: listed apart in the source
Description: Phos-tag gel autophosphorylation, initial rates, Michaelis-Menten fit on BT4124-RR | RECs have higher kcat and lower Km values than RRs

NP(=O)(O)O [6] = test system: NP(=O)(O)O; remark: listed apart in the source
Description: Phos-tag gel autophosphorylation, initial rates, Michaelis-Menten fit on BT4663-REC | RECs have higher kcat and lower Km values than RRs

NP(=O)(O)O [7] = test system: NP(=O)(O)O; remark: listed apart in the source
Description: Phos-tag gel autophosphorylation, initial rates, Michaelis-Menten fit on BT4663-RR | RECs have higher kcat and lower Km values than RRs

BT3334-REC (Bacteroides thetaiotaomicron VPI-5482)
Km (NP(=O)(O)O [1]): 4.5 ± 0.8 mM | kcat (NP(=O)(O)O [1]): 0.02 ± 0.0017 s⁻¹

BT3334-RR (Bacteroides thetaiotaomicron VPI-5482)
Km (NP(=O)(O)O [2]): 7.8 ± 2.4 mM | kcat (NP(=O)(O)O [2]): 0.0095 ± 0.00083 s⁻¹

BT4124-REC (Bacteroides thetaiotaomicron VPI-5482)
Km (NP(=O)(O)O [3]): 10 ± 1 mM | kcat (NP(=O)(O)O [3]): 0.0233 ± 0.0017 s⁻¹

BT4124-REC (Bacteroides thetaiotaomicron VPI-5482; C1262A/H1263D)
Km (NP(=O)(O)O [4]): 13 ± 2 mM | kcat (NP(=O)(O)O [4]): 0.0267 ± 0.0017 s⁻¹

BT4124-RR (Bacteroides thetaiotaomicron VPI-5482)
Km (NP(=O)(O)O [5]): 17 ± 2 mM | kcat (NP(=O)(O)O [5]): 0.00833 ± 0.0005 s⁻¹

BT4124-RR (Bacteroides thetaiotaomicron VPI-5482; C1262A/H1263D)
Km (NP(=O)(O)O [4]): 8.5 ± 1.5 mM | kcat (NP(=O)(O)O [4]): 0.02 ± 0.0017 s⁻¹

BT4124-RR (Bacteroides thetaiotaomicron VPI-5482; C1262A/H1263G)
Km (NP(=O)(O)O [4]): 13 ± 3 mM | kcat (NP(=O)(O)O [4]): 0.0183 ± 0.0017 s⁻¹

BT4663-REC (Bacteroides thetaiotaomicron VPI-5482)
Km (NP(=O)(O)O [6]): 14 ± 4 mM | kcat (NP(=O)(O)O [6]): 0.0135 ± 0.0017 s⁻¹

BT4663-RR (Bacteroides thetaiotaomicron VPI-5482)
Km (NP(=O)(O)O [7]): 33 ± 6 mM | kcat (NP(=O)(O)O [7]): 0.0035 ± 0.00033 s⁻¹
